# B1: evolocumab (antibody, chains of the INN, looked up, V domains shown)
# VH: EVQLVQSGAEVKKPGASVKVSCKASGYTLTSYGISWVRQAPGQGLEWMGWVSFYNGNTNYAQKLQGRGTMTTDPSTSTAYMELRSLRSDDTAVYYCARGYGMDVWGQGTTVTVSS
# VL: ESALTQPASVSGSPGQSITISCTGTSSDVGGYNSVSWYQQHPGKAPKLMIYEVSNRPSGVSNRFSGSKSGNTASLTISGLQAEDEADYYCNSYTSTSMVFGGGTKLTVL
# Experiments:
# [1] = molecular target: T1, PCSK9 (Homo sapiens, UniProt Q8NBP7)
# [2] = molecular target: T1, PCSK9; test: Plasma PCSK9 and PAI-1 levels in hypercholesterolemic patients treated with PCSK9 monoclonal antibodies; type: in vivo; set-up: from tissue; host or cells: plasma of hypercholesterolemic patients; details: before vs during treatment; for plasma PAI-1 levels: n=28, p=0.0029
# Protocol: Plasma samples from hypercholesterolemic patients were obtained from the OHSU Center for Preventive Cardiology Registry and Biorepository, approved by OHSU Institutional Review Board (17329).
# Total cholesterol was quantified in the murine plasma using an enzymatic determination (Pointe Scientific, Cat #C7510). The lipoprotein profile of the murine plasma samples was assessed running a fast-phase liquid chromatography (FPLC), in brief 100 μL of plasma (from one animal or a pool of several samples of the same conditions) were loaded to a Superose 6 column (GE HealthCare, Cat #29-0915-96) at a flow rate of 0.5 mL/min in running buffer (0.15M NaCl, 0.01M Na2HPO4 and 1 mM EDTA). Fractions were collected every minute for 41 minutes and analyzed for cholesterol concentrations as described above. Murine plasma PCSK9 levels were determined using an ELISA kit (MBL International, Cat #CY-80781). Murine PAI-1 levels were quantified using an ELISA kit (Molecular Innovations, Cat #MPAIKT-TOT). Murine PAI-1 activity levels were quantified by ELISA (Molecular Innovations, Cat #MPAIKT). Human PAI-1 levels were quantified by ELISA (Molecular Innovations, Cat #HPAIKT-TOT).
# PAI-1 and PCSK9 levels were also quantified in plasma samples obtained from a human cohort with and without heart failure with preserved ejection fraction (HFpEF). There was again a positive correlation between PAI-1 and PCSK9 levels in these patients, similar to that in mice and in the Amish kindred (FIG. 19D, p<0.0001; R=0.351).
molecule,measurement,setting,value
recombinant human low molecular weight urokinase,"proteolytic degradation of PCSK9 in vitro (Western blot for PCSK9, silver stain)",[1],efficiently promoted the proteolytic degradation of recombinant human PCSK9
alirocumab,total plasma PCSK9 levels,[2],large increase
same,plasma PAI-1 levels,[2],significant reduction
B1,total plasma PCSK9 levels,[2],large increase
same,plasma PAI-1 levels,[2],significant reduction
